Experiments:
TACI receptor = experiment: I^125-labeled ZTNF4 binding to baby hamster kidney cells transfected with a TACI expression vector; Scatchard analysis
Ztnfr12 (human) = experiment: I^125-labeled ZTNF4 binding to baby hamster kidney cells transfected with Ztnfr12; Scatchard analysis

ZTNF4 (ligand) showed a Kd (TACI receptor) of 1.25 nM and a Kd (Ztnfr12 (human)) of 1 nM.

From patent US20030092164A1
